Drawing on patent US20260234247A1 (published 2026), this text covers binding result and EC50 for 21 molecules.

Residue numbers refer to the chain shown, from its start.

B1: LK-RB2-20 (antibody, human IgG4 S228P, kappa, V domains shown)
VH: QVQLKQPGAERVKPGASVKMSCKASGYTFTRYWITWVKQRPGQGLEWIGDIYPGSATTNYNEKFKSKATLTEDTSSSTAYMQLSSLTSEDSAVYYCARSGDYSNSNYAMDYWGQGTSVTVSS
VL: NIEMTQSPKSMSMAVGERVTLSCKASENVGTYVSWYQQKPEQSPKLLIYGASNRNTGVPDRFTGSGSATDFTLTISSVQAEDLADYHCGQSYSYPFTFGSGTKLEIKR
B2: LK-RB2-31 (antibody, human IgG4 S228P, kappa, V domains shown)
VH: QVQLQQPGAELVKPGASMKLSCKASGYTFTTYYMYWVKQRPGLGLEWIGGINPSNGGTTFNEKFKNKATLTVDKSSSTAYMQLRSLTSEDSAVYYCTRWRFFDVWGAGTTVTVSS
VL: SIVMTQTPEFLLVSAGDRVTITCKASQSVNNDVAWFQQKPGQSPKLLIYYASNRYTGVPDRFTGSGYGTDFTFTISTVQAEDLAIYFCQQDYSSPPTFGGATKLEIKR
B3: LK-RB2-46 (antibody, human IgG4 S228P, kappa, V domains shown)
VH: QVQMQQSDAELVKPGASVKISCKVSGYTFTDQIIHWMKQRPEQGLEWIGYIYPRDDSIMYNEKFKGKATLTADKSSSTANMQLNSLTSEDSAVYFCAYDAYWYFDVWGTGTTVIVSS
VL: DIVMTQSHKFMSASVGDRVSITCKASQDVNTAVAWYRQDPGQSPKLLIYWASTRHTGVPDRFTGSGSGTDYTLTINNFQAEDLALYYCQQHYSPPLTFGAGTKLELKR
B4: LK-RB2-47 (antibody, human IgG4 S228P, kappa, V domains shown)
VH: QVQLKQSGPGLVQPSQSLSITCTVSGFSLISYGVHWVRQSPGKGLEWLGVIWSGGSTDYNAAFISRLSISKDNSKSQVFFKMNSLQADDTAIYYCARSFHYHGSTFDYWGQGTTLTVSS
VL: DIQMTQTTSSLSASLGDRVIISCRASQDINNYLNWYQQKPDGTVKLLIYFTSRLHSGVPSSFSGSGSGTDYSLTINNLEQEDIATYFCQQVNTLPYTFGGGTKLEIKR
B5: LK-RB2-27 (antibody, human IgG4 S228P, kappa, V domains shown)
VH: DVKLVESGGGLVKPGGSLKLSCAASGFTFSSYSMSWVRQTPEKRLEWVATISTGGSYTYYPDSVKGRFTISRDNAKNTLYLQMSSLKSEDTAMFYCTRGSMDYWGQGTSVTVSS
VL: DILMTQSPSSMSVSLGDTVSITCHASQDISSNIGWLQQKPGNSFKGLIYHGTNLEDGVPSRFSGSGSGADYSLTISSLESEDFADYYCVQYAQFPYTFGGGTKLEIKR
B6: LK-RB2-28 (antibody, human IgG4 S228P, kappa, V domains shown)
VH: B5 VH with V64M
VL: B5 VL with T22A
B7: LK-RB2-34 (antibody, human IgG4 S228P, kappa, V domains shown)
VH: B5 VH with L4V, G55S, P61S
VL: B5 VL with T52I
B8: LK-RB2-39 (antibody, human IgG4 S228P, kappa, V domains shown)
VH: DVKLVESGGGSVQPGGSLKLSCAASGFTFSDYYMYWVRQTPEKRLEWVAYISNGGGNTYYPDTVKGRFTISRDNAKNTLYLQMSRLKSEDTAMYYCARSNWAWYFDVWGTGTTVTVSS
VL: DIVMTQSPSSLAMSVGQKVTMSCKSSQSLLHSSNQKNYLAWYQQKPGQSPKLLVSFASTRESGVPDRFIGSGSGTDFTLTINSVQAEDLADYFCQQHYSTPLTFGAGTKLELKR
B9: LK-RB2-38 (antibody, human IgG4 S228P, kappa, V domains shown)
VH: B8 VH with D1E, S11L, T28S, T78S, A92G, S99D, N100R, W101E, A102D
VL: DIVMTQSHTFMSTSVGDRVSITCKASQDVSTAVAWYQQKPGQSPKLLIYWASTRHTGVPDRFTGSGSGTDYTLTISSVQAEDLALYYCQQHYSTPRTFGGGTKLEIKR
B10: LK-RB2-29 (antibody, human IgG4 S228P, kappa, V domains shown)
VH: QVQLQQSGAELARPGASVKLSCKASGYTFTSYWMQWVKQRPGQGLEWIGAIYPGDGDTRYTQKFKGKATLTADKSSSTAYMQLSSLASEDSAVYYCARGYYGSSYADYFDYWGQGTTLTVSS
VL: DIQMTQSPASLSASVGETVTITCRASGNIHNYLAWYQQKQGKSPQLLVYNAKTLADGVPSRFSGSGSGTQYSLKINSLQPEDFGSYYCQHFWSTPPTFGGGTKLEIKR
B11: LK-RB2-10 (antibody, human IgG4 S228P, kappa, V domains shown)
VH: EVMLVESGGDLVKPGGSLKLSCAASGFTFSANTVSWLRRTPERRLEWVATISGGSDNTYCPDSVKGRFTISRDNARDTLYLQMSSLTSEDTALYFCARHYYDGPNWYFDVWGPGTTVTVSS
VL: DIVMTQSQKFMSSTGGDRVTITCKASQNVDTAVAWYQQKPGQSPKLLIYSASNRYIGVPDRFKGSGSGTDFSLTITNIQSEDLAEYFCQQYSSYPLTFGAGTKLELKR
B12: LK-RB2-9 (antibody, human IgG4 S228P, kappa, V domains shown)
VH: DVQLQESGPGLVKPSQSLSLTCSVTGYSITSGYYWNWIRQFPGNKLEWMGYIGYDGNNNYNPSLKNRISITRDTSKNQFFLKLNSLTTEDTATYYCAREGSTMVTSWFAYWGQGTLVTVSA
VL: DIQMTQSPASLSVSVGETVTITCRASENIYSNLAWYQQKQGKSPQLLVYGATNLADGVPSRFSGRGSDTQYSLKINSLQSEDFGSYYCQHFWDTPYTFGGGTKLEIKR
B13: LK-RB2-30 (antibody, human IgG4 S228P, kappa, V domains shown)
VH: EVQLVESGGGLVQPGGSLKLSCAASGFTFNTDGMSWVRQTPDKRLELVAIINSNGGSTYYPDSVKGRFTISRDNAKNTLYLQMSSLKSEDTAMYYCAREGSYGSWFAYWGQGTLVTVSA
VL: B12 VL with Y30N, S31N, Q37H, G50A, R65S, D68G, D93G, Y96F
B14: LK-RB2-18 (antibody, human IgG4 S228P, kappa, V domains shown)
VH: EVQLQQSGPELVKPGTSVKISCKASGYTFTDYYMNWVKQSHGKSLEWIGDINPNNGGTSYNQKFKGKATLTVDKSSSTAYMELRSLTSEDSAVFYCARSGTTVVGTYWYFDVWGTGTTVTVSS
VL: B12 VL with R65S, D68G, Y96F, G100S
B15: LK-RB2-25 (antibody, human IgG4 S228P, kappa, V domains shown)
VH: QVQLKESGPGLVAPSQSLSITCTVSGFSLTSYGVHWVRQPPGKGLEWLGVIWAGGSTKYNSALMSRLSINKDNSKSQVFLKMNSLQTDDTAMYYCARDQMVRSAMDYWGQGTSVTVSS
VL: DIQMIQSPSSMFASLGDRVSLSCRASQGIRGNLDWYQQKPGGTIKLLIYSTSNLNSAVPSRFSGSGSGSDYSLTISNLESEDFADYYCLQRNASPYTFGGGTKLEIKR
B16: LK-RB2-11 (antibody, human IgG4 S228P, kappa, V domains shown)
VH: QIQLVQSGPELKKPGETVKISCKASGYSFITYGMSWVKQAPGKGLKWMGWINTYSGEPTYGDDFMGRFAFSLETSASTAYLQINNLKNEDTASYFCARYHYDDGMDYWGQGTSVTVSS
VL: DIKMTQSPSSMYASLGERVTITCKASQDINNYLSWFQQKPGKSPKTLIFRANRLVDGVPSRFSGSGSGQDYSLTISSLEDEDMGIYYCLQYDEFPWMFGGGTKLEIER
B17: LK-RB2-43 (antibody, human IgG4 S228P, kappa, V domains shown)
VH: EVQLVESGGDLVKPGGSLKLSCAASGFTFSSYGMSWVRQTPDKRLEWVATISGGGTYTYYPDSVKGRFTISRDNAKNTLYLQMSSLKSEDTAMYYCASGAMDYWGQGTSVTVSS
VL: QIVLTQSPAILSASPGEKVTMTCSANSSVSSMYKYQQKPGSSPKPWIYGTSNLASGVPARFSGSGSGTSYSLTISSMEAADAATYYCQQYHSHPLTFGAGTKLELKR
B18: LK-RB2-44 (antibody, human IgG4 S228P, kappa, V domains shown)
VH: B17 VH
VL: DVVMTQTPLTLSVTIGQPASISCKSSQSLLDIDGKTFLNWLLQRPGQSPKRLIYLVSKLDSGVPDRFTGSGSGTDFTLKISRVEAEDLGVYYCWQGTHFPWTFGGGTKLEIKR
B19: LK-RB2-13 (antibody, human IgG4 S228P, kappa, V domains shown)
VH: QIQLVQSGPELKKPGETVKISCKASGYTFTTYGMSWVKQAPGKGLQWMGWINTYSGVPTFADDFKGRFAFSLDTSASTAYLQINNLKNEDTATYFCARRINWDGYAMDYWGQGTSVTVSS
VL: DSVMSQSPSSLAVSVGEKVTMSCKSSQSLLYSGNQKSYLAWYQQKPGQSPKLLIYWASTRESGVPDRFTGSGSGTDFTLTISSVKAEDLAVYYCQQYYSYPYTFGGGTKLEIKR
B20: LK-RB2-17 (antibody, human IgG4 S228P, kappa, V domains shown)
VH: B19 VH with T31N, K65R, N85S, T93A
VL: B19 VL with M21L, T59S, Y100F
B21: p1E1 (antibody, human IgG4 S228P, kappa, V domains shown)
VH: EVQLQQWGAGLLKPSETLSLTCAVYGGSFSGYYWSWIRQPPGKGLEWIGEINHSGSTNYNPSLKSRVTISVDTSKNQFSLKLSSVTAADTAVYYCARLPTRWVTTRYFDLWGRGTLVTVSS
VL: ESVLTQPPSVSGAPGQRVTISCTGSSSNIGAGYDVHWYQQLPGTAPKLLIYGNSNRPSGVPDRFSVSKSGASASLAITGLQAEDEADYYCQSFDNSLSAYVFGGGTQLTVLG

In general, EC50 refers to the concentration that produces a half-maximal response. A low value points to higher potency in that assay.

In one assay the target is T1, human LILRB1 expressed on CHOK1 cells (CHOK1-hLILRB1) (human, UniProt Q8NHL6 24-650).
T1 construct: whole, on cells; also called CHOK1-LILRB1
T1 sequence (Q8NHL6 24-650): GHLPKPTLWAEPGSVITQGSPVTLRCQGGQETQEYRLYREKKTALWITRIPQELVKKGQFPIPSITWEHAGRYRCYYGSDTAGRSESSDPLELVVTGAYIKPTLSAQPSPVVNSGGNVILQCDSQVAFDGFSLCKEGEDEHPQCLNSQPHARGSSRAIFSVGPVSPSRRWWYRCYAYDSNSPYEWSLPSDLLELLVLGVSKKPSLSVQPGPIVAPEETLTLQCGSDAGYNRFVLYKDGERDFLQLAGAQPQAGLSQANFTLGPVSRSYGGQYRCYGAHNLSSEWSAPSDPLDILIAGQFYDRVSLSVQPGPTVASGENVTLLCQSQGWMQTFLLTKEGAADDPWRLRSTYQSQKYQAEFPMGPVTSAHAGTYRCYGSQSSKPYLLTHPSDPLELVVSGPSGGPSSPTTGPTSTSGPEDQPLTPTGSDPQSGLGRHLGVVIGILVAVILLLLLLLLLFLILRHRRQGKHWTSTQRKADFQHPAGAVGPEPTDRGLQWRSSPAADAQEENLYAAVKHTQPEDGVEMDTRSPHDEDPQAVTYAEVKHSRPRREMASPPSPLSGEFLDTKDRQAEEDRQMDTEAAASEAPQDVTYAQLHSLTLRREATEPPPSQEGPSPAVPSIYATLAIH
Put plainly: FACS binding to CHOK1-hLILRB1 cells. A general note: In flow cytometry, cells or beads pass a laser one at a time.
With B1, the binding result was “no binding”.
In the case of B2, the EC50 is 1.99 nM.
Consider B3, for which the binding result was “no binding”.
Regarding B4, the binding result was “no binding”.
Regarding B5, the binding result is “no binding”.
Still for that read-out and setting: with B6 the entry was “no binding”.
In the case of B7, the binding result was “no binding”.
As for B8, the binding result was “no binding”.
For the molecule B9, the binding result was “no binding”.
Turning to B10, the binding result is recorded as “no binding”.
The same measure, in the same setting: next, B11: “no binding”; B12: “no binding”; B13: “no binding”.
With B14, the binding result is reported as “no binding”.
Molecule B15 gave an EC50 of 1.71 nM.
Consider B16, for which the binding result is listed as “no binding”.
Turning to B17, the binding result is “no binding”.
Take B18: the binding result was “no binding”.
On the same count and under the same terms, with B19 the entry was “no binding”; with B20, “no binding”; with B21, “no binding”.

In a further assay the target is T2, human LILRB2 expressed on CHOK1 cells (CHOK1-hLILRB2) (human, UniProt Q8N423 22-597).
T2 construct: whole, on cells; also called CHOK1-LILRB2
T2 sequence (Q8N423 22-597): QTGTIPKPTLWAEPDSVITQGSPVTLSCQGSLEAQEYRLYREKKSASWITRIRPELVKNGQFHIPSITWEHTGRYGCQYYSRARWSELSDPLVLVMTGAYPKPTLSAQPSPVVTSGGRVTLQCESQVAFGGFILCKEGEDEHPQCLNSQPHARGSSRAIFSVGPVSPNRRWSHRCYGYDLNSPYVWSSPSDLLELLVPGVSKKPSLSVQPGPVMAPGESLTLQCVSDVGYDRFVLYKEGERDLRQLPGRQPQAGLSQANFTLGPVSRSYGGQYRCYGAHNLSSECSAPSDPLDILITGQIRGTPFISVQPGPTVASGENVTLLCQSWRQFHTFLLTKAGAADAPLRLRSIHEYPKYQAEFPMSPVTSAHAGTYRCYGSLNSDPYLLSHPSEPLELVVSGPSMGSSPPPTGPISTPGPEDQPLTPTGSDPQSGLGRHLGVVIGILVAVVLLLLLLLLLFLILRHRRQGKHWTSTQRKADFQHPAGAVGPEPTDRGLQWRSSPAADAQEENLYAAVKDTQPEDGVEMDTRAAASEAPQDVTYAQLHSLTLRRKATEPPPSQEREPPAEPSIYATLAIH
Briefly: FACS binding to CHOK1-hLILRB2 cells.
In turn, B1 showed an EC50 of 0.14 nM.
For the molecule B2, the binding result is reported as “no binding”.
In the case of B3, the EC50 was found to be 0.35 nM.
Consider B4, for which the binding result was “no binding”.
The same measure, in the same setting: next, B5: “no binding”; B6: “no binding”.
Still for that read-out and setting: next, B7: “no binding”.
As to B8, a half-maximal effect (EC50) was put at 36.6 nM.
In the case of B9, the binding result is listed as “no binding”.
Same read-out and setting: with B10 the entry was “no binding”.
The molecule B11 showed an EC50 of 0.27 nM.
For the molecule B12, the concentration giving a half-maximal response (EC50) is 0.17 nM.
Take B13: the binding result was “no binding”.
Molecule B14 gave an EC50 of 0.14 nM.
Consider B15, for which the binding result is given as “no binding”.
Turning to B16, the EC50 was 0.27 nM. This lies in the sub-nanomolar range.
Take B17: the binding result was “no binding”.
Consider B18, for which the binding result is reported as “no binding”.
Turning to B19, it took 0.23 nM to reach a half-maximal effect (EC50).
The molecule B20 had an EC50 of 0.16 nM.
Regarding B21, the midpoint of the response, the EC50, lay at 0.64 nM.
